The target of assay [1] is GP5 in the pVC vector (pVC-GP5) (HP-PRRSV-2 strain HuN4). As to the kind of experiment: split reporter (BiFC, NanoBiT); BiFC in HEK293T cotransfected with pVN and pVC plasmids, 24 hpt; YFP signal by confocal microscopy and ratio of YFP-positive cells by flow cytometry. On the technique in general: A flow cytometer gives signals particle by particle.
Assay [2] has as its target N protein in the pVC vector (pVC-N) (HP-PRRSV-2 strain HuN4). The assay is described as above.

In article PMC11784222 one finds percent of fluorescence-positive cells (BiFC) data, which are given here for two substances.

For the substance “N protein in the pVN vector (pVN-N) (natural protein)”, in assay [1], the percent of fluorescence-positive cells (BiFC) was 3.87%.
Regarding “nsp2 in the pVN vector (pVN-nsp2) (natural protein)”, the percent of fluorescence-positive cells (BiFC) in assay [2] is 32.1%.
